# B1: MSV LTR (dsDNA)
# DNA 1: TCGGAGACGGAAGCGCGC
# DNA 2: GCGCGCTTCCGTCTCCGA
# Molecular target: t-Elf-1 (truncated Elf-1) (UniProt P32519 108-304)
# Experiment: EMSA
# Chain of t-Elf-1 (truncated Elf-1) (P32519 108-304): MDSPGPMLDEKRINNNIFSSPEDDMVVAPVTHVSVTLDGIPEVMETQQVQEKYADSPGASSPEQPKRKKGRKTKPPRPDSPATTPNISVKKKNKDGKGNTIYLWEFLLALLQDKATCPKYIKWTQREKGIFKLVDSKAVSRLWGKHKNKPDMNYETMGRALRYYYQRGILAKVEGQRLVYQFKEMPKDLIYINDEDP
binder,measurement,value
B1,binding result,binds

# From article PMC2191257
